Results reported in patent US12269859B2, “Synthetic immune receptors and methods of use thereof” (Angeles Therapeutics, Inc., priority 2016, dated 2025).

Tested on: target antigen-expressing cell line
Test: Jurkat NFAT-GFP assay, coculture with target cell lines expressing the respective target antigen (summary Table 10A)
Format: cell-based, human
Design: key: The signs +/−, +, 2+ etc. after the name of the cell lines indicate the relative degree of positivity on the Jurkat-NFAT-GFP assay as measured by the % GFP positive cells; +: relative degree of positivity on the Jurkat-NFAT-GFP assay as measured by the % GFP positive cells; 2+: relative degree of positivity on the Jurkat-NFAT-GFP assay as measured by the % GFP positive cells
Outline: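 Coculture of SIR-bearing Jurkat NFAT-GFP reporters with target cells, ~1:2 E:T, ~4–18 h. FACS quantified % GFP+ cells, ranked semi-quantitatively against parental Jurkat-NFAT-GFP.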

B1: 090116-K02 (protein)
chain: MALPVTALLLPLALLLHAARPLEGKPIPNPLLGLDSTGSGEDLKNVFPPEVAVFEPSKAEIAHTQKATLVCLATGFYPDHVELSWWVNGKEVHSGVCTDPQPLKEQPALNDSRYCLSSRLRVSATFWQNPRNHFRCQVQFYGLSENDEWTQDRAKPVTQIVSAEAWGRADCGITSASYHQGVLSATILYEILLGKATLYAVLVSALVLMAMVKRKDSRGRAKRSGSGATNFSLLKQAGDVEENPGPTSMALPVTALLLPLALLLHAARPDIVMTQSHKFMSTSVGDRVSVTCKASQNVGNNVAWYQQKPGQSPKVLIYSASYRYSGVPDRFTGSGSGTDFTLTISNVQSEDLAEYFCQQYNTYPFTFGSGTKLEIKGGGGSGGGGSGGGGSEVQLEESGGGLVQPGGSMKLSCVASGFTFSNYWMNWVRQSPEKGLEWVAEIRFKSHNYATHFAESVKGRFTISRDDSKSSVYLQMNNLRAEDTGIYYCTRRIGNSDYDWWYFDVWGAGTSVTVSSASTREQKLISEEDGSGIQNPDPAVYQLRDSKSSDKSVCLFTDFDSQTNVSQSKDSDVYITDKCVLDMRSMDFKSNSAVAWSNKSDFACANAFNNSIIPEDTFFPSSDVPCDVKLVEKSFETDTNLNFQNLSVIGFRILLLKVAGFNLLMTLRLWSSRAKRSGSGVKQTLNFDLLKLAGDVESNPGPSRGHMTEYKPTVRLATRDDVPRAVRTLAAAFADYPATRHTVDPDRHIERVTELQELFLTRVGLDIGKVWVADDGAAVAVWTTPESVEAGAVFAEIGPRMAELSGSRLAAQQQMEGLLAPHRPKEPAWFLATVGVSPDHQGKGLGSAVVLPGVEAAERAGVPAFLETSAPRNLPFYERLGFTVTADVEVPEGPRTWCMTRKPGA
modifications: Synthetic Immune Receptor (SIR)
Coculture with NALM6 cells
  NFAT-GFP ASSAY Positive Cell lines: (2+)
Coculture with RAJI cells
  NFAT-GFP ASSAY Positive Cell lines: RAJI (2+), NALM6

B2: 032216-Y07 (protein)
chain: MALPVTALLLPLALLLHAARPDIVMTQSHKFMSTSVGDRVSVTCKASQNVGNNVAWYQQKPGQSPKVLIYSASYRYSGVPDRFTGSGSGTDFTLTISNVQSEDLAEYFCQQYNTYPFTFGSGTKLEIKLEGKPIPNPLLGLDSTGSGEDLKNVFPPEVAVFEPSKAEIAHTQKATLVCLATGFYPDHVELSWWVNGKEVHSGVCTDPQPLKEQPALNDSRYCLSSRLRVSATFWQNPRNHFRCQVQFYGLSENDEWTQDRAKPVTQIVSAEAWGRADCGITSASYHQGVLSATILYEILLGKATLYAVLVSALVLMAMVKRKDSRGRAKRSGSGATNFSLLKQAGDVEENPGPTSMDWIWRILFLVGAATGAHSFEEVQLEESGGGLVQPGGSMKLSCVASGFTFSNYWMNWVRQSPEKGLEWVAEIRFKSHNYATHFAESVKGRFTISRDDSKSSVYLQMNNLRAEDTGIYYCTRRIGNSDYDWWYFDVWGAGTSVTVSSASTREQKLISEEDGSGIQNPDPAVYQLRDSKSSDKSVCLFTDFDSQTNVSQSKDSDVYITDKCVLDMRSMDFKSNSAVAWSNKSDFACANAFNNSIIPEDTFFPSSDVPCDVKLVEKSFETDTNLNFQNLSVIGFRILLLKVAGFNLLMTLRLWSSRAKRSGSGVKQTLNFDLLKLAGDVESNPGPSRGHMTEYKPTVRLATRDDVPRAVRTLAAAFADYPATRHTVDPDRHIERVTELQELFLTRVGLDIGKVWVADDGAAVAVWTTPESVEAGAVFAEIGPRMAELSGSRLAAQQQMEGLLAPHRPKEPAWFLATVGVSPDHQGKGLGSAVVLPGVEAAERAGVPAFLETSAPRNLPFYERLGFTVTADVEVPEGPRTWCMTRKPGA
modifications: Polynucleotide encoding a Synthetic Immune Receptor (SIR)
Coculture with RAJI cells
  NFAT-GFP ASSAY Positive Cell lines: RAJI (+)

B3: 083016-B06 (protein)
chain: MALPVTALLLPLALLLHAARPLEGKPIPNPLLGLDSTGSGEDLKNVFPPEVAVFEPSKAEIAHTQKATLVCLATGFYPDHVELSWWVNGKEVHSGVCTDPQPLKEQPALNDSRYCLSSRLRVSATFWQNPRNHFRCQVQFYGLSENDEWTQDRAKPVTQIVSAEAWGRADCGITSASYHQGVLSATILYEILLGKATLYAVLVSALVLMAMVKRKDSRGRAKRSGSGATNFSLLKQAGDVEENPGPTSMALPVTALLLPLALLLHAARPDIVMTQSHKFMSTSVGDRVSVTCKASQNVGNNVAWYQQKPGQSPKVLIYSASYRYSGVPDRFTGSGSGTDFTLTISNVQSEDLAEYFCQQYNTYPFTFGSGTKLEIKGGGGSGGGGSGGGGSEVQLEESGGGLVQPGGSMKLSCVASGFTFSNYWMNWVRQSPEKGLEWVAEIRFKSHNYATHFAESVKGRFTISRDDSKSSVYLQMNNLRAEDTGIYYCTRRIGNSDYDWWYFDVWGAGTSVTVSSASTREQKLISEEDLGSGTPFPSLAPPIMLLVDGKQQMVVVCLVLDVAPPGLDSPIWFSAGNGSALDAFTYGPSPATDGTWTNLAHLSLPSEELASWEPLVCHTGPGAEGHSRSTQPMHLSGEASTARTCPQEPLRGTPGGALWLGVLRLLLFKLLLFDLLLTCSCLCDPAGPLPSPATTTRLRALGSHRLHPATETGGREATSSPRPQPRDRRWGDTPPGRKPGSPVRAKRSGSGVKQTLNFDLLKLAGDVESNPGPSRSRGHMTEYKPTVRLATRDDVPRAVRTLAAAFADYPATRHTVDPDRHIERVTELQELFLTRVGLDIGKVWVADDGAAVAVWTTPESVEAGAVFAEIGPRMAELSGSRLAAQQQMEGLLAPHRPKEPAWFLATVGVSPDHQGKGLGSAVVLPGVEAAERAGVPAFLETSAPRNLPFYERLGFTVTADVEVPEGPRTWCMTRKPGA
modifications: Polynucleotide encoding a Synthetic Immune Receptor (SIR)
Coculture with RAJI cells
  NFAT-GFP ASSAY Positive Cell lines: RAJI (+)

B4: 041416-N03 (protein)
chain: MALPVTALLLPLALLLHAARPDIVMTQSHKFMSTSVGDRVSVTCKASQNVGNNVAWYQQKPGQSPKVLIYSASYRYSGVPDRFTGSGSGTDFTLTISNVQSEDLAEYFCQQYNTYPFTFGSGTKLEIKLEGKPIPNPLLGLDSTGSGEDLKNVFPPEVAVFEPSKAEIAHTQKATLVCLATGFYPDHVELSWWVNGKEVHSGVCTDPQPLKEQPALNDSRYCLSSRLRVSATFWQNPRNHFRCQVQFYGLSENDEWTQDRAKPVTQIVSAEAWGRADCGITSASYHQGVLSATILYEILLGKATLYAVLVSALVLMAMVKRKDSRGRAKRSGSGATNFSLLKQAGDVEENPGPTSMDWIWRILFLVGAATGAHSFEEVQLEESGGGLVQPGGSMKLSCVASGFTFSNYWMNWVRQSPEKGLEWVAEIRFKSHNYATHFAESVKGRFTISRDDSKSSVYLQMNNLRAEDTGIYYCTRRIGNSDYDWWYFDVWGAGTSVTVSSASTREQKLISEEDGSGTPFPSLAPPIMLLVDGKQQMVVVCLVLDVAPPGLDSPIWFSAGNGSALDAFTYGPSPATDGTWTNLAHLSLPSEELASWEPLVCHTGPGAEGHSRSTQPMHLSGEASTARTCPQEPLRGTPGGALWLGVLRLLLFKLLLFDLLLTCSCLCDPAGPLPSPATTTRLRALGSHRLHPATETGGREATSSPRPQPRDRRWGDTPPGRKPGSPVRAKRSGSGVKQTLNFDLLKLAGDVESNPGPSRGHMTEYKPTVRLATRDDVPRAVRTLAAAFADYPATRHTVDPDRHIERVTELQELFLTRVGLDIGKVWVADDGAAVAVWTTPESVEAGAVFAEIGPRMAELSGSRLAAQQQMEGLLAPHRPKEPAWFLATVGVSPDHQGKGLGSAVVLPGVEAAERAGVPAFLETSAPRNLPFYERLGFTVTADVEVPEGPRTWCMTRKPGA
modifications: Polynucleotide encoding a Synthetic Immune Receptor (SIR)
Coculture with RAJI cells
  NFAT-GFP ASSAY Positive Cell lines: RAJI (+/−)
